Target: T1, C-terminal flag-tagged ACPP transmembrane protein expressed on 293T cells (pcDNA-ACPP-flag)
T1 sequence: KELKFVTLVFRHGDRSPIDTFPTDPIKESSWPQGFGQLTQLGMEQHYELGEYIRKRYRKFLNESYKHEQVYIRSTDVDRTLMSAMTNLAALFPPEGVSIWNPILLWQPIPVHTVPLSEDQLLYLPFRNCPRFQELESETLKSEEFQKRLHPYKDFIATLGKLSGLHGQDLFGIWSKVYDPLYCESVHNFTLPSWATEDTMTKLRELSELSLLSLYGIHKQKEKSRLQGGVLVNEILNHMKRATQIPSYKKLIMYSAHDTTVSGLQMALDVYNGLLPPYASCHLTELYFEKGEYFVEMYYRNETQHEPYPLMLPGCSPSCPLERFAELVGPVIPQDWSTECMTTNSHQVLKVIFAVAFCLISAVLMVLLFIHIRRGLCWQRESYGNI
Assay: flow cytometry on 293T cells transfected with pcDNA-ACPP-flag, surface staining without permeabilisation, goat anti human-FITC secondary antibody

B1: ACPP antibody S12D9 (human full antibody) (antibody, V domains shown)
VH: EVQLVQSGAEVRKPGSSVKVSCKASGDNFNNYGITWVRQAPGQGLEWMGRLITVLGLDNYAQKFQGRLTITADESTGTAYMELTGLEPEDTAVYYCARDIMSPEAIDAFDVWGQGTLVTVSS
VL: QPVLTQDPVVSVALGQTVRITCQGDSLRSYYATWYQQKPGLAPVRVIFGKNSRPSGIPDRFSGSSSGNTASLTITGAQAEDEADYYCNSWDNSANHPVFGGGTKLTVL
B1 gave a % of cells in the positive gate V1R of 0.01%.

B2: ACPP antibody S10E12 (human full antibody) (antibody, V domains shown)
VH: EVQLVQSGAEVRKPGSSVKVSCKASGDNFNNYGITWVRQAPGQGLEWMGRLITVLGLDNYAQKFQGRLTITADESTGTAYMELTGLEPEDTAVYYCARDIMSPEAIDAFDVWGQGTLVTVSS
VL: DIQMTQSPSSLSASVGDRVTITCRASQDVSNYLNWYQQKPGKAPKLLIYGASNRQTGVPSRFSGSGSGTDFTLTISSLQPEDFATYYCQQEDRFPTTFGQGTKVEIK
B2 gave a % of cells in the positive gate V1R of 0.18%.

B3: ACPP antibody S12D4 (human full antibody) (antibody, V domains shown)
VH: QMQLVQSGAEVRRPGSSVKVSCKTSGGTLNNYDINWVRQAPGQGLEWMGWMNPTSGQADFAQKFQGRVSMTRDTSINTAFMELNTLRSEDTAVYYCVRRGGKYWGQGTLVTVSS
VL: QPVLTQDPAVSVALGQTVRITCQGDSLRKYYASWYQQKPGQAPRLVMYDENDRPSGIPDRFSGSSSGNTASLTITGAQADDEADYYCNSRDSSGHHVVFGGGTKVTVL
B3 was tested, and the % of cells in the positive gate V1R was 0.06%.

B4: ACPP antibody S9F5 (human full antibody) (antibody, V domains shown)
VH: EVQLVESGGGLVQPGGSLRLSCAASGFTFSNYWMSWVRQAPGKGLEWVAGISASGGNKYYADSVKGRFTISRDNSKNTLYLQMNSLRAEDTAVYYCAKGPIQLKRHKYVLDYWGQGTLVTVSS
VL: SYELTQPPSVSVAPGQTARITCGGDALPNNSVRWYQQKPGQAPVLVIYGNSERPSGIPERFSGSNSGNTATLTISGTQAEDEADYYCQVSDKSTKYSVFGGGTKLTVL
Binder B4 has a % of cells in the positive gate V1R of 0.15%.

B5: ACPP antibody S4C7 (human full antibody) (antibody, V domains shown)
VH: QMLVQSGAEVKRPGSSVTVSCETSGDTFSRYAISWLRQAPGQGLEWLGWISGNSGRADYAQNFQGRVTMTTDRSTSTAYLNLRSLRSDDTAVYYCARDAPMLFGVRGGGYYFGMDVWGQGTTVTVSS
VL: EIVLTQSASSLSASVGDRVTITCRTSQNIYRYLNWYQQKPGKAPKLLIFGASTLQTGVPSRFSGSGSGTDFTLTITGLQPEDLATYYCQHSFKLPFTFGQGTRLEIK
B5 was tested, and the % of cells in the positive gate V1R was 0.1%.

From patent US20250171560A1
